In PMC9629720, “Lipids mediate supramolecular outer membrane protein assembly in bacteria” (Science Advances, 2022):

How the values were obtained:
[1] = molecular target: OmpF, wild type, purified (E. coli) (UniProt P02931); assay: native MS; purified OmpF samples, 5 μM in 1% β-OG, 0.2 M ammonium acetate pH 6.9; the OmpF trimer itself
[2] = molecular target: OmpF V177^BPA cross-linked to phospholipid (anion exchange peak 1) (E. coli) (UniProt P02931); assay: as above
[3] = molecular target: OmpF (endogenous, co-extracted with FepA^BPA) (E. coli (endogenous in BW25113)) (UniProt P02931); assay: native MS; FepA^BPA preparations with co-extracted porins, 5 μM in 1% β-OG, 0.2 M ammonium acetate pH 6.9; make-up of the porin trimers
[4] = molecular target: OmpF V177^BPA cross-linked to LPS (anion exchange peak 2) (E. coli) (UniProt P02931); assay: native MS; purified OmpF samples, 5 μM in 1% β-OG, 0.2 M ammonium acetate pH 6.9; the OmpF trimer itself
[5] = molecular target: the molecule itself; assay: native MS; FepA^BPA preparations with co-extracted porins, 5 μM in 1% β-OG, 0.2 M ammonium acetate pH 6.9; make-up of the porin trimers
[6] = molecular target: T1, OmpF (endogenous, co-extracted with FepA^BPA) (E. coli (endogenous in BW25113), UniProt P02931 23-362); assay: as above; conditions: partners not purified
T1 construct: OmpF, 16-stranded β barrel porin of E. coli; Found as homotrimers and as heterotrimers with OmpC; also called OmpF/C; porins; source: endogenous, outer membrane of E. coli BW25113 ΔfepA
T1 sequence (looked up): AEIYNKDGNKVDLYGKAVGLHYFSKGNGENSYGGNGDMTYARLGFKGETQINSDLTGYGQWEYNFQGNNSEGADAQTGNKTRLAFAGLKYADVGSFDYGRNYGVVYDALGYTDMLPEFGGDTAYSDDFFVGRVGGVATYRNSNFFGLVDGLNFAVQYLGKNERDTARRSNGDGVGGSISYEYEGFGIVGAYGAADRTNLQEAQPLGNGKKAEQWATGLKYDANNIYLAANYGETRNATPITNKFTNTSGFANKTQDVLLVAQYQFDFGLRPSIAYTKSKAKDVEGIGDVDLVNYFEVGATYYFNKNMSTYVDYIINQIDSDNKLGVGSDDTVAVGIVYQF

Molecule: OmpF, wild type, purified (from UniProt P02931 23-362) (natural protein)
- stoichiometry N [1]: 3

Molecule: OmpF V177^BPA cross-linked to phospholipid (anion exchange peak 1) (from UniProt P02931 23-362) (natural protein)
- stoichiometry N [2]: 3

Molecule: OmpF (endogenous, co-extracted with FepA^BPA) (from UniProt P02931 23-362) (natural protein)
- stoichiometry N [3]: 3

Molecule: OmpF V177^BPA cross-linked to LPS (anion exchange peak 2) (from UniProt P02931 23-362) (natural protein)
- stoichiometry N [4]: 3

B1: OmpC (endogenous, co-extracted with FepA^BPA) (natural protein, E. coli (endogenous in BW25113), UniProt P06996 22-367, looked up)
chain: AEVYNKDGNKLDLYGKVDGLHYFSDNKDVDGDQTYMRLGFKGETQVTDQLTGYGQWEYQIQGNSAENENNSWTRVAFAGLKFQDVGSFDYGRNYGVVYDVTSWTDVLPEFGGDTYGSDNFMQQRGNGFATYRNTDFFGLVDGLNFAVQYQGKNGNPSGEGFTSGVTNNGRDALRQNGDGVGGSITYDYEGFGIGGAISSSKRTDAQNTAAYIGNGDRAETYTGGLKYDANNIYLAAQYTQTYNATRVGSLGWANKAQNFEAVAQYQFDFGLRPSLAYLQSKGKNLGRGYDDEDILKYVDVGATYYFNKNMSTYVDYKINLLDDNQFTRDAGINTDNIVALGLVYQF
notes: OmpC, porin, structural homolog of OmpF, E. coli; Found as homotrimers and as heterotrimers with OmpF; also called OmpF/C; porins; source: endogenous, outer membrane of E. coli BW25113 ΔfepA
- stoichiometry N [5]: 3
- stoichiometry N [6]: 3
